One molecule from publication PMC8660799, “Cryo-EM reveals unique structural features of the FhuCDB Escherichia coli ferrichrome importer” (Communications Biology, 2021) can be followed below.

Residue numbers refer to the chain shown, from its start.

By Kd is commonly meant the constant that tells how readily two partners part at equilibrium. A lower Kd goes with a tighter complex.

For one assay, the target named is T1, FhuCB with FhuB Q636A (Escherichia coli, UniProt P07821 1-265; P06972 1-660, Q636A, red-tris-NTA 2nd generation dye on the His-tag).
T1 construct: FhuC, ATPase subunit, Escherichia coli; as in Dm2; FhuB, membrane subunit, Escherichia coli, 660 residues; Mutant made on the FhuCB-pET15b construct by direct mutagenesis; source: E. coli BL21(DE3) C43, purified (TALON, Superose 6 gel filtration) in LMNG; not shown: His-tag, N-terminal, kept; copies: 2 + 1
T1 sequence (looked up) 1: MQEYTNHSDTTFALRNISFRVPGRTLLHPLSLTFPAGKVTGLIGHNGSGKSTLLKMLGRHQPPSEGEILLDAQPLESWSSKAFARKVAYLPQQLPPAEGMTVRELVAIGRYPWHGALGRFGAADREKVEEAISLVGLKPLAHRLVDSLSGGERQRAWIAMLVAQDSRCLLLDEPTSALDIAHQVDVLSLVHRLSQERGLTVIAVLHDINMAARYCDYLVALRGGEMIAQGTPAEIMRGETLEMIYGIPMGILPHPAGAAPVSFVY
T1 sequence (looked up) 2: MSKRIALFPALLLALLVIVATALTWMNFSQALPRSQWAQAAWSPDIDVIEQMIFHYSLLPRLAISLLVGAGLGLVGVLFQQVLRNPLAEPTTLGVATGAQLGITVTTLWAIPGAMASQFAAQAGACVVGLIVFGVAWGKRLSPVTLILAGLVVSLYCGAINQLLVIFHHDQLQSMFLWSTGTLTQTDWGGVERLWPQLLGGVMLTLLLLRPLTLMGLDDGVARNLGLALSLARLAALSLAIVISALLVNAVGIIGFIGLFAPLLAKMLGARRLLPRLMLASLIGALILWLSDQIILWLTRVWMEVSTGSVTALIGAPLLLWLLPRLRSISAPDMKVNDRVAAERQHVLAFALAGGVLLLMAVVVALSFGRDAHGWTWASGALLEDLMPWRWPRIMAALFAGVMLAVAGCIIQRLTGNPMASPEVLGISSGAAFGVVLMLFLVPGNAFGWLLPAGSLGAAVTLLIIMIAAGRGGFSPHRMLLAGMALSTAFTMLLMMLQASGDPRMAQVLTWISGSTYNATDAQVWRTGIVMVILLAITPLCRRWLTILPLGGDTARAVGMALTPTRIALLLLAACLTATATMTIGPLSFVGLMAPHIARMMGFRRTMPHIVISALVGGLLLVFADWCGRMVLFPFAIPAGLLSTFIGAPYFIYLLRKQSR
Description: MST; 40 nM FhuCB (wild type or FhuB mutant) in detergent, His-tag labelled with red-tris-NTA 2nd generation dye; serial dilution of 1.6 μM FhuD with substrate ferrichrome; with ATP-Mg; Monolith NT.115pico, 20% LED power, medium MST power. The conditions noted are these: both partners purified.

Assay [1] addresses T2, FhuCB with FhuB Q507A, T510A (Escherichia coli, UniProt P07821 1-265; P06972 1-660, Q507A | T510A, red-tris-NTA 2nd generation dye on the His-tag).
T2 construct: FhuC, ATPase subunit, Escherichia coli; as in Dm2; FhuB, membrane subunit, Escherichia coli, 660 residues; Mutant made on the FhuCB-pET15b construct by direct mutagenesis; also called Q507T510; source: E. coli BL21(DE3) C43, purified (TALON, Superose 6 gel filtration) in LMNG; not shown: His-tag, N-terminal, kept; copies: 2 + 1
T2 sequence (looked up) 1: T1 sequence (looked up) 1
T2 sequence (looked up) 2: T1 sequence (looked up) 2 with Q507A, T510A, A636Q
The description is as above. To be noted: both partners purified.

B1: FhuD (natural protein, Escherichia coli)
chain: AAIDPNRIVALEWLPVELLLALGIVPYGVADTINYRLWVSEPPLPDSVIDVGLRTEPNLELLTEMKPSFMVWSAGYGPSPEMLARIAPGRGFNFSDGKQPLAMARKSLTEMADLLNLQSAAETHLAQYEDFIRSMKPRFVKRGARPLLLTTLIDPRHMLVFGPNSLFQEILDEYGIPNAWQGETNFWGSTAVSIDRLAAYKDVDVLCFDHDNSKDMDALMATPLWQAMPFVRAGRFQRVPAVWFYGATLSAMHFVRVLDNAIGGKA
notes: In 'FhuD-ferrichrome' the protein was loaded with the small molecule ferrichrome; also called FhuD-ferrichrome (when loaded with ferrichrome)
Take B1: the results for the Kd (with FhuCB with FhuB Q636A; in assay [1]) were 0.0902 µM and 0.0792 µM, respectively.
